Each block holds one binder with its values, some of them ahead of it.
Molecular target: biotinylated-YE (UpxY of the PSE operon, Bacteroides fragilis) (Bacteroides fragilis NCTC 9343)
Experiment: BLI

Kd: 88 nM
koff: 0.0096 s⁻¹
kon: 110000 M⁻¹ s⁻¹
B1: ZE (UpxZ of the PSE operon, Bacteroides fragilis) (natural protein)
chain: MNTLMTQIHELQHVAHELLYLGADGSPIYTDSFRQLNTEVLQKSDALFALKGENPEEEARLCLALLMGYNATIYDYGDKESKKQVILDRSLLVLESLPSSLLKCQLLTYCYGEVFEEELAKEAHAIIDYWDNKTLSIDEQETVDMLKMIEENQYPNNYID

Kd: 0.9 nM
kon: 1.1e+06 M⁻¹ s⁻¹
B2: ZA (UpxZ of the PSA operon, Bacteroides fragilis) (natural protein)
chain: MNQVQNLQHIARELLYLGMDGSPIYTDHFRQLNTEVFRLSEALFSMKGATSEEEAAICLSLLMGYNATIYNDGDKESKIQSILDRSFAVLDHLPASLLKCQLLTYCYGEVFEEDLAQEAHQIMDSWKNRALSEEELEVMETLQTMEDNRYPCSEVED
